Results from PMC10765591, “Structural analysis and molecular substrate recognition properties of Arabidopsis thaliana ornithine transcarbamylase, the molecular target of phaseolotoxin produced by Pseudomonas syringae” (Frontiers in Plant Science, 2023).

Target: Arabidopsis thaliana ornithine transcarbamylase (Arabidopsis thaliana) (UniProt O50039)
Assay: crystal structure; AtOTC co-crystallised with 20 mM ornithine or carbamoyl phosphate; HEPES 0.1 M pH 6.0, 0.3 M Li2SO4, PEG 3350, about 20°C; three subunits around a non-crystallographic three-fold axis

Sequence of Arabidopsis thaliana ornithine transcarbamylase (O50039 53-375): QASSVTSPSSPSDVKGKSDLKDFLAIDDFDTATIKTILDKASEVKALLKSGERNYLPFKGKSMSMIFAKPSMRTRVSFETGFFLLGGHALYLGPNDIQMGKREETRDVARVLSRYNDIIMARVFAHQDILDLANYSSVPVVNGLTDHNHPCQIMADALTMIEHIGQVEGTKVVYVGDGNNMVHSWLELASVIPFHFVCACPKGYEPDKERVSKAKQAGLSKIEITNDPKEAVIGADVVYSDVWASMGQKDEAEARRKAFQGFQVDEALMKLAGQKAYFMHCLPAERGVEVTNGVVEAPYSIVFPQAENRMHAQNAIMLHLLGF

“Arabidopsis thaliana ornithine transcarbamylase (from UniProt O50039 53-375) (enzyme)” was tested, and the stoichiometry N was 3.
